Test results published in patent US20240139329A1 (CALIFORNIA INSTITUTE OF TECHNOLOGY, published 2024).

T1: human interleukin 3 (IL3), expressed on microarray cells (human, UniProt P08700 20-152)
T1 construct: also called hIL3
T1 sequence: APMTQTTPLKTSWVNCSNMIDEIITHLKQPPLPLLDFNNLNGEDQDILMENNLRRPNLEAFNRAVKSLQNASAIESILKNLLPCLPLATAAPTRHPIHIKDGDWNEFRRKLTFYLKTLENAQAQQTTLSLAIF

T2: mouse LRP6-E1E2 (N-half, AA 20-628) tagged with Fc (mouse IgG2a) (mouse, UniProt O88572 20-628)
T2 construct: not shown: mouse IgG2a Fc
T2 sequence: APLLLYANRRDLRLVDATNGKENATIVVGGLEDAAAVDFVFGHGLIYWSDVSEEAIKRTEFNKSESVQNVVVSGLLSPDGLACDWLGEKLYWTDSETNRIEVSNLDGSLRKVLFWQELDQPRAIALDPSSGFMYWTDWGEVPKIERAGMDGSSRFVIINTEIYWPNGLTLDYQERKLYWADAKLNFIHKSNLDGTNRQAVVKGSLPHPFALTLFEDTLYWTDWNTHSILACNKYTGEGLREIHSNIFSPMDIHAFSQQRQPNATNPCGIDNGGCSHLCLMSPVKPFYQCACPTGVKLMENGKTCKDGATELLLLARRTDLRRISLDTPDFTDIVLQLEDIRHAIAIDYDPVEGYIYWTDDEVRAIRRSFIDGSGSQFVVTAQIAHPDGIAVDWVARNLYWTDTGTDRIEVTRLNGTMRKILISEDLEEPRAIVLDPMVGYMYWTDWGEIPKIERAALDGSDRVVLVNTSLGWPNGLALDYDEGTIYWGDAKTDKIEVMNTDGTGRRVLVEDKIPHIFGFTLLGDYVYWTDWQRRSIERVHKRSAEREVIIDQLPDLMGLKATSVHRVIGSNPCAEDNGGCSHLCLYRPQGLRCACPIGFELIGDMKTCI

T3: mouse LRP6-E3E4 (C-half, AA 629-1244) tagged with Fc (mouse IgG2a) (mouse, UniProt O88572 629-1244)
T3 construct: not shown: mouse IgG2a Fc
T3 sequence: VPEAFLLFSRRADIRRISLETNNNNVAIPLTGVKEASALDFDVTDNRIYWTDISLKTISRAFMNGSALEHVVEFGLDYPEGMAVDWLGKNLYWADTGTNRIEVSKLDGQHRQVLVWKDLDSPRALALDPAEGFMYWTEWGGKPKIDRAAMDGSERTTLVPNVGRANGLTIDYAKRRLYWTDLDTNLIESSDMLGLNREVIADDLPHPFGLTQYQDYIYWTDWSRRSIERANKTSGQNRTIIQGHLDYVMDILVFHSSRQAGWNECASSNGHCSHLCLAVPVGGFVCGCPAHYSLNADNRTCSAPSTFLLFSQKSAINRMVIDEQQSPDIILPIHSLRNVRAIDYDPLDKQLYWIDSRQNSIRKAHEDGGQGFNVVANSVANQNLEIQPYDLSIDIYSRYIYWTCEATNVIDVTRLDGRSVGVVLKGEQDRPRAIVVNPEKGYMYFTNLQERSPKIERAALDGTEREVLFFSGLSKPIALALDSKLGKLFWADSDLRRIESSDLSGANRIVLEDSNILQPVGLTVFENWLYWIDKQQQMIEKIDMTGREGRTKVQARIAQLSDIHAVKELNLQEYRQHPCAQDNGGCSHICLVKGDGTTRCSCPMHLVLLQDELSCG


Legend:
[1] = biological target: T4, human pancreatic secretory granule membrane major glycoprotein GP2 (GP2), on cells (human, UniProt P55259 29-512); test: cell microarray screen hit (membrane)
T4 construct: also called glycoprotein 2; hGP2
Method: After these controls, the six-capsid pool was tested in a full screen of approximately 6400 proteins, including 6000 human plasma membrane proteins and secreted and cell surface-tethered proteins, as well as approximately 400 heterodimers. […] To assign these hits to specific capsids, follow-up deconvolution screens were performed with each individual capsid from the pool (FIG. 12E). DNA oligos for the 22 identified hits, as well as the positive control CD86, were affixed in duplicate locations to new slides. A negative control condition with no AAV analyte and a positive control condition with CTLA4-Fc (CD86 binder) were also included.

[2] = biological target: T1, human interleukin 3 (IL3), expressed on …; test: cell microarray screen hit (title of Table 4)
[3] = biological target: T2, mouse LRP6-E1E2 (N-half, AA 20-628) …; test: SPR, target-Fc captured on protein A chip, AAV analyte (FIG. 14D)
[4] = biological target: T3, mouse LRP6-E3E4 (C-half, AA 629-1244) …; test: as above

T4 sequence (P55259 29-512 limits assumed): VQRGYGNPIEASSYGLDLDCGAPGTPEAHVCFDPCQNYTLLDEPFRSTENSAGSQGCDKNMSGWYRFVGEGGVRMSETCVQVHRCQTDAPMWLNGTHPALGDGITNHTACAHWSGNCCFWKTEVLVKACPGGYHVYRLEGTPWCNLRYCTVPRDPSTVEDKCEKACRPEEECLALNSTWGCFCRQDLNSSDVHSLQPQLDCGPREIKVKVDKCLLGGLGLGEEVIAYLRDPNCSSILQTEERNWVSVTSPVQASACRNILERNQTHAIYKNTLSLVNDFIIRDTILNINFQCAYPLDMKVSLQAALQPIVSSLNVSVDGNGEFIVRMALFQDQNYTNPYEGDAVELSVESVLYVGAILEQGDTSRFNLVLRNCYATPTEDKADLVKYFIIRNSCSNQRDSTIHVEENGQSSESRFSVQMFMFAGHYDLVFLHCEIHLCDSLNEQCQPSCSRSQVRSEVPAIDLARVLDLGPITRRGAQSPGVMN

Binder	binding result [1]	binding result [2]	binding result [3]	binding result [4]
AAV.CAP-Mac (other, also called CAP-C1) MAADGYLPDWLEDNLSEGIREWWALKPGAPQPKANQQHQDNARGLVLPGYKYLGPGNGLDKGEPVNAADAAALEHDKAYDQQLKAGDNPYLKYNHADAEFQERLKEDTSFGGNLGRAVFQAKKRLLEPLGLVEEAAKTAPGKKRPVEQSPQEPDSSAGIGKSGAQPAKKRLNFGQTGDTESVPDPQPIGEPPAAPSGVGSLTMASGGGAPVADNNEGADGVGSSSGNWHCDSQWLGDRVITTSTRTWALPTYNNHLYKQISNSTSGGSSNDNAYFGYSTPWGYFDFNRFHCHFSPRDWQRLINNNWGFRPKRLNFKLFNIQVKEVTDNNGVKTIANNLTSTVQVFTDSDYQLPYVLGSAHEGCLPPFPADVFMIPQYGYLTLNDGSQAVGRSSFYCLEYFPSQMLRTGNNFQFSYEFENVPFHSSYAHSQSLDRLMNPLIDQYLYYLSRTINGSGQNQQTLKFSVAGPSNMAVQGRNYIPGPSYRQQRVSTTVTQNNNSEFAWPGASSWALNGRNSLMNPGPAMASHKEGEDRFFPLSGSLIFGKQGTGRDNVDADKVMITNEEEIKTTNPVATESYGQVATNHQSAQLNTTKPIAQAQTGWVQNQGILPGMVWQDRDVYLQGPIWAKIPHTDGNFHPSPLMGGFGMKHPPPQILIKNTPVPADPPTAFNKDKLNSFITQYSTGQVSVEIEWELQKENSKRWNPEIQYTSNYYKSNNVEFAVNTEGVYSEPRPIGTRYLTRNL	binds	binds	binds	no binding
AAV9-X1.1 (other, also called AAV-X1.1; X1B10) MAADGYLPDWLEDNLSEGIREWWALKPGAPQPKANQQHQDNARGLVLPGYKYLGPGNGLDKGEPVNAADAAALEHDKAYDQQLKAGDNPYLKYNHADAEFQERLKEDTSFGGNLGRAVFQAKKRLLEPLGLVEEAAKTAPGKKRPVEQSPQEPDSSAGIGKSGAQPAKKRLNFGQTGDTESVPDPQPIGEPPAAPSGVGSLTMASGGGAPVADNNEGADGVGSSSGNWHCDSQWLGDRVITTSTRTWALPTYNNHLYKQISNSTSGGSSNDNAYFGYSTPWGYFDFNRFHCHFSPRDWQRLINNNWGFRPKRLNFKLFNIQVKEVTDNNGVKTIANNLTSTVQVFTDSDYQLPYVLGSAHEGCLPPFPADVFMIPQYGYLTLNDGSQAVGRSSFYCLEYFPSQMLRTGNNFQFSYEFENVPFHSSYAHSQSLDRLMNPLIDQYLYYLSRTIDGAATKNQTLKFSVAGPSNMAVQGRNYIPGPSYRQQRVSTTVTQNNNSEFAWPGASSWALNGRNSLMNPGPAMASHKEGEDRFFPLSGSLIFGKQGTGRDNVDADKVMITNEEEIKTTNPVATESYGQVATNHQSAQGNNTRSVAQAQTGWVQNQGILPGMVWQDRDVYLQGPIWAKIPHTDGNFHPSPLMGGFGMKHPPPQILIKNTPVPADPPTAFNKDKLNSFITQYSTGQVSVEIEWELQKENSKRWNPEIQYTSNYYKSNNVEFAVNTEGVYSEPRPIGTRYLTRNL	binds	binds	binds	no binding
